The numbers were not newly measured in PMC6258485, which cites them from elsewhere.

The data set deals with CD55 (Homo sapiens) (UniProt P08174).
Sequence of UniProt P08174 (P08174 35-353): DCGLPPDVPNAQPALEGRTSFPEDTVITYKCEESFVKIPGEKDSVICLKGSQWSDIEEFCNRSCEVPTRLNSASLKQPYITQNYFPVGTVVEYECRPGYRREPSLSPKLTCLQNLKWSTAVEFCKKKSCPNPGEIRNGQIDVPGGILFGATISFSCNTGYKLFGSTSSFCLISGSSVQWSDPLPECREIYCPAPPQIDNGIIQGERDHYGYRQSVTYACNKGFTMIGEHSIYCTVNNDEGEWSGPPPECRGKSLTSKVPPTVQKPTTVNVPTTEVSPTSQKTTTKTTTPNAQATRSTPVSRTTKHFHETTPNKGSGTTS

With CD97 (from UniProt P48960), the equilibrium dissociation constant (Kd) is 86 µM.

In general, Kd refers to the equilibrium constant for the complex coming apart.
